{"source": "patent US20150307603A1", "about": "(MODIQUEST B V, published 2015)", "binders": {"B1": {"name": "RhmAb2.102 (antibody, human IgG1, lambda)", "heavy": "not shown", "light": "QSVLTQPPSMSAAPGQKVTISCSGSSSNIGNNYVSWYQQVPGTAPKLLIYDDNKRPSGIPGRFSGSKSATSATLGITGLQAGDEADYYCGSWDDNLSVVLFGGGTKLTVLGQPKAAPSVTLFPPSSEELQANKATLVCLISDFYPGAVTVAWKADSSPVKAGVETTTPSKQSNNKYAASSYLSLTPEQWKSHRSYSCQVTHEGSTVEKTVAPTECS", "notes": "Human IgG1 lambda; also called Rhm2.102"}}, "key": {"CFC-1 [1]": {"molecular_target": "T1, CFC-1", "T1 construct": "Positive control for anti-citrulline reactivity; also called cfc1 XG; Cfc1-peptide", "experiment": "ELISA, Ab 0.4 ug/well", "method": "(§1) Biotin and citrulline-containing peptides derived from histone 2A were immobilized on NEUTRAVIDIN®-coated 96-well ELISA plates (0.3 μg/well). CFC-1 and CFC-0 were coated at the same concentration and served as positive and negative controls, respectively, for specific anti-citrulline reactivity and as coating controls. Non-coated wells were used to test for aspecific binding of the antibodies. […] Detection of bound anti-citrulline antibodies was performed by incubating the wells with rabbit anti-human HRP (1:2000) for 1 hour at RT followed by incubation with TMB substrate. The resulting OD (y-axis) is a measure for antibody binding."}, "[2]": {"molecular_target": "T2, peptide no. 1 (human histone 2A) (human, also: biotin-labelled)", "T2 construct": "also called peptide 1; AAASGXGKQGGK", "T2 peptide": "AAASG[Cit]GKQGGK", "experiment": "ELISA, Ab 0.4 ug/well", "method": "as §1"}, "[3]": {"molecular_target": "T3, peptide no. 2 (human histone 2A) (human, also: biotin-labelled)", "T3 construct": "also called peptide 2", "T3 peptide": "AKAKS[Cit]SSRAGL", "experiment": "ELISA, Ab 0.4 ug/well", "method": "as §1"}, "[4]": {"molecular_target": "T4, peptide no. 3 (human histone 2A) (human, also: biotin-labelled)", "T4 construct": "also called peptide 3", "T4 peptide": "KSRSS[Cit]AGLQFP", "experiment": "ELISA, Ab 0.4 ug/well", "method": "as §1"}, "[5]": {"molecular_target": "T5, peptide no. 4 (human histone 2A) (human, also: biotin-labelled)", "T5 construct": "also called peptide 4", "T5 peptide": "QFPVG[Cit]VHRLLR", "experiment": "ELISA, Ab 0.4 ug/well", "method": "as §1"}, "[6]": {"molecular_target": "T6, peptide no. 5 (human histone 2A) (human, also: biotin-labelled)", "T6 construct": "also called peptide 5", "T6 peptide": "VGRVH[Cit]LLRKGN", "experiment": "ELISA, Ab 0.4 ug/well", "method": "as §1"}, "[7]": {"molecular_target": "T7, peptide no. 6 (human histone 2A) (human, also: biotin-labelled)", "T7 construct": "also called peptide 6", "T7 peptide": "VHRLL[Cit]KGNYSE", "experiment": "ELISA, Ab 0.4 ug/well", "method": "as §1"}, "[8]": {"molecular_target": "T8, peptide no. 7 (human histone 2A) (human, also: biotin-labelled)", "T8 construct": "also called peptide 7", "T8 peptide": "GNYSE[Cit]VGAGAP", "experiment": "ELISA, Ab 0.4 ug/well", "method": "as §1"}, "[9]": {"molecular_target": "T9, peptide no. 8 (human histone 2A) (human, also: biotin-labelled)", "T9 construct": "also called peptide 8", "T9 peptide": "AGNAA[Cit]DNKKTR", "experiment": "ELISA, Ab 0.4 ug/well", "method": "as §1"}, "[10]": {"molecular_target": "T10, peptide no. 9 (human histone 2A) (human, also: biotin-labelled)", "T10 construct": "also called peptide 9", "T10 peptide": "DNKKT[Cit]IIPRHL", "experiment": "ELISA, Ab 0.4 ug/well", "method": "as §1"}, "[11]": {"molecular_target": "T11, peptide no. 10 (human histone 2A) (human, also: biotin-labelled)", "T11 construct": "also called peptide 10", "T11 peptide": "TRIIP[Cit]HLQLAI", "experiment": "ELISA, Ab 0.4 ug/well", "method": "as §1"}, "[12]": {"molecular_target": "T12, peptide no. 11 (human histone 2A) (human, also: biotin-labelled)", "T12 construct": "also called peptide 11", "T12 peptide": "LQLAI[Cit]NDEELN", "experiment": "ELISA, Ab 0.4 ug/well", "method": "as §1"}, "[13]": {"molecular_target": "T13, peptide no. 12 (human histone 2A) (human, also: biotin-labelled)", "T13 construct": "also called peptide 12", "T13 peptide": "NKLLG[Cit]VTIAQG", "experiment": "ELISA, Ab 0.4 ug/well", "method": "as §1"}, "[14]": {"molecular_target": "T14, huPAD4-deiminated human recombinant histone 2A (human)", "T14 construct": "also called H2A/p4; histone 2A/p4", "experiment": "ELISA, Ab 0.08 ug/well", "from_the_text": "(§2) The resulting OD (y-axis) is a measure for antibody binding. H1-recombinant histone 1; H1/p2-huPAD2 recombinant histone 1; H1/p4-huPAD4 recombinant histone 1, and so forth (x-axis)."}, "[15]": {"molecular_target": "T15, human recombinant histone 2B (human)", "T15 construct": "Non-deiminated; also called H2B", "experiment": "ELISA, Ab 0.08 ug/well", "from_the_text": "as §2"}, "[16]": {"molecular_target": "T16, huPAD4-deiminated human recombinant histone 2B (human)", "T16 construct": "also called H2B/p4", "experiment": "ELISA, Ab 0.08 ug/well", "from_the_text": "as §2"}, "CFC-1 [17]": {"molecular_target": "T1, CFC-1", "experiment": "ELISA, Ab 0.08 ug/well", "method": "as §1, with “fibrinogen and vimentin” for “histone 2A”\n(§3) Biotin-labeled and citrulline-containing fibrinogen and vimentin peptides (Table 5) were also tested for reactivity with the therapeutic antibodies. Peptides were coated on 96-well NEUTRAVIDIN®-ELISA plates."}, "msFibα XH": {"molecular_target": "T17, msFibα XH (mouse, X at position 15 = citrulline; biotin-labelled)", "T17 peptide": "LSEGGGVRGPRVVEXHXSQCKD", "experiment": "ELISA, Ab 0.08 ug/well", "method": "as §1, with “fibrinogen and vimentin” for “histone 2A”\nas §3"}, "msFibα XG": {"molecular_target": "T18, msFibα XG (mouse, X at position 8 = citrulline; biotin-labelled)", "T18 peptide": "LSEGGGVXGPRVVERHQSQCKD", "experiment": "ELISA, Ab 0.08 ug/well", "method": "as §1, with “fibrinogen and vimentin” for “histone 2A”\nas §3"}, "huFibα XH": {"molecular_target": "T19, huFibα XH (human, X at position 15 = citrulline; biotin-labelled)", "T19 peptide": "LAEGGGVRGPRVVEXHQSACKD", "experiment": "ELISA, Ab 0.08 ug/well", "method": "as §1, with “fibrinogen and vimentin” for “histone 2A”\nas §3"}, "huFibα XG": {"molecular_target": "T20, huFibα XG (human, X at position 8 = citrulline; biotin-labelled)", "T20 peptide": "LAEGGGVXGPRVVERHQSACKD", "experiment": "ELISA, Ab 0.08 ug/well", "method": "as §1, with “fibrinogen and vimentin” for “histone 2A”\nas §3"}, "msFibβ XG": {"molecular_target": "T21, msFibβ XG (mouse, also: biotin-labelled)", "T21 construct": "also called mouse fibrinogen β peptide", "T21 peptide": "EPTDSLDA[Cit]GHRPVDRR", "experiment": "ELISA, Ab 0.08 ug/well", "method": "as §1, with “fibrinogen and vimentin” for “histone 2A”\nas §3"}, "msVim XS/XL": {"molecular_target": "T22, msVim XS/XL (mouse, also: biotin-labelled)", "T22 construct": "also called mouse vimentin peptide", "T22 peptide": "YVT[Cit]SSAV[Cit]L[Cit]SSVP", "experiment": "ELISA, Ab 0.08 ug/well", "method": "as §1, with “fibrinogen and vimentin” for “histone 2A”\nas §3"}, "[18]": {"molecular_target": "T16, huPAD4-deiminated human recombinant …", "experiment": "ELISA, Ab 0.000128 ug/well", "from_the_text": "as §2"}, "[19]": {"molecular_target": "PREDICTED: similar to 60S ribosomal protein L29 (Cell surface heparin-binding protein HIP) [Homo sapiens] (Homo sapiens)", "experiment": "IP of deiminated HEK293 lysate + MS emPAI; reference RhmAb2.101", "protocol": "(§4) Beads were subjected to three washes with 1 ml IPP500, one wash with 1 ml IPP150 (10 mM Tris/HCl pH 8.0, 150 mM NaCl, 0.1% NP40 and 0.1% TWEEN®-20), and subsequently incubated at room temperature with 300 p1 deiminated HEK293 lysate for 2 hours under constant rotation. Beads were washed three times with 1 ml of IPP150, after which a small part has been used for SDS-PAGE electrophoresis to determine if the IP procedure with the HEK293 cells was successful.\n(§5) The exponentially modified protein abundance index (emPAI) was calculated for all validated proteins."}, "[20]": {"molecular_target": "ribosomal protein L29 [Homo sapiens] (Homo sapiens)", "experiment": "IP of deiminated HEK293 lysate + MS emPAI; reference RhmAb2.101", "protocol": "as §4, §5"}}, "note": "Non-standard residues stand in square brackets, D forms with d. No end group written: not given here. Cit = NC(=O)NCCC[C@H](N)C(=O)O", "data": [{"binder": "B1", "values": [{"measurement": "OD", "setting": "CFC-1 [1]", "result": 3.06, "unit": "OD450"}, {"measurement": "OD", "setting": "[2]", "result": 2.8, "unit": "OD450"}, {"measurement": "OD", "setting": "[3]", "result": 0.136, "unit": "OD450"}, {"measurement": "OD", "setting": "[4]", "result": 0.154, "unit": "OD450"}, {"measurement": "OD", "setting": "[5]", "result": 0.564, "unit": "OD450"}, {"measurement": "OD", "setting": "[6]", "result": 0.082, "unit": "OD450"}, {"measurement": "OD", "setting": "[7]", "result": 0.333, "unit": "OD450"}, {"measurement": "OD", "setting": "[8]", "result": 0.064, "unit": "OD450"}, {"measurement": "OD", "setting": "[9]", "result": 0.061, "unit": "OD450"}, {"measurement": "OD", "setting": "[10]", "result": 0.057, "unit": "OD450"}, {"measurement": "OD", "setting": "[11]", "result": 0.051, "unit": "OD450"}, {"measurement": "OD", "setting": "[12]", "result": 0.064, "unit": "OD450"}, {"measurement": "OD", "setting": "[13]", "result": 0.061, "unit": "OD450"}, {"measurement": "OD", "setting": "[14]", "result": 1.75, "unit": "OD450"}, {"measurement": "OD", "setting": "[15]", "result": 0.054, "unit": "OD450"}, {"measurement": "OD", "setting": "[16]", "result": 0.052, "unit": "OD450"}, {"measurement": "OD", "setting": "CFC-1 [17]", "result": 3.03, "unit": "OD450"}, {"measurement": "OD", "setting": "msFibα XH", "result": 0.076, "unit": "OD450"}, {"measurement": "OD", "setting": "msFibα XG", "result": 0.237, "unit": "OD450"}, {"measurement": "OD", "setting": "huFibα XH", "result": 0.08, "unit": "OD450"}, {"measurement": "OD", "setting": "huFibα XG", "result": 0.186, "unit": "OD450"}, {"measurement": "OD", "setting": "msFibβ XG", "result": 0.515, "unit": "OD450"}, {"measurement": "OD", "setting": "msVim XS/XL", "result": 0.515, "unit": "OD450"}, {"measurement": "OD", "setting": "[18]", "result": 0.053, "unit": "OD450"}, {"measurement": "Ratio 102/101 (emPAI)", "setting": "[19]", "result": 1, "unit": "ratio"}, {"measurement": "Ratio 102/101 (emPAI)", "setting": "[20]", "result": 0.5, "unit": "ratio"}]}]}
